# Test results published in article doi:10.1101/2025.08.03.668247, “The structure of Egalitarian in complex with the K10 mRNA localization signal reveals a modular binding surface required for function”.
# T1: R753A (Drosophila melanogaster, UniProt Q9W1K4 512-819, R753A)
# T1 sequence: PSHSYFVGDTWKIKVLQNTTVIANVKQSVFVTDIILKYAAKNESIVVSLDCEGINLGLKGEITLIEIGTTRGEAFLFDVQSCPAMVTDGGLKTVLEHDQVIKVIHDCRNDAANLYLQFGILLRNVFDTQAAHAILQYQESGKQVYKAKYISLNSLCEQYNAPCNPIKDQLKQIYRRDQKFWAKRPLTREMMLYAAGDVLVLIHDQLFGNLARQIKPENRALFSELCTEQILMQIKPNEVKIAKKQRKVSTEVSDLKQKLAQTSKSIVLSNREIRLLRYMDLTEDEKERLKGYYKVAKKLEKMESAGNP
# T2: R782E (Drosophila melanogaster, UniProt Q9W1K4 512-819, R782E)
# T2 sequence: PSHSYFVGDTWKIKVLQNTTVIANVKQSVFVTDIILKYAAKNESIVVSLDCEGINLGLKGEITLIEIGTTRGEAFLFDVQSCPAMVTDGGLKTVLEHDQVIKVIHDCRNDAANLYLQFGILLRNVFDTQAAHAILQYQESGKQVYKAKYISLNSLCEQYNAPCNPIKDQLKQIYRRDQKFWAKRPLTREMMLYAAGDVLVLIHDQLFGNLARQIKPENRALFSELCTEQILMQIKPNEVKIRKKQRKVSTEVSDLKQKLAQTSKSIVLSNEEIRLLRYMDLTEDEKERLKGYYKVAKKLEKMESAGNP
# T3: R788E (Drosophila melanogaster, UniProt Q9W1K4 512-819, R788E)
# T3 sequence: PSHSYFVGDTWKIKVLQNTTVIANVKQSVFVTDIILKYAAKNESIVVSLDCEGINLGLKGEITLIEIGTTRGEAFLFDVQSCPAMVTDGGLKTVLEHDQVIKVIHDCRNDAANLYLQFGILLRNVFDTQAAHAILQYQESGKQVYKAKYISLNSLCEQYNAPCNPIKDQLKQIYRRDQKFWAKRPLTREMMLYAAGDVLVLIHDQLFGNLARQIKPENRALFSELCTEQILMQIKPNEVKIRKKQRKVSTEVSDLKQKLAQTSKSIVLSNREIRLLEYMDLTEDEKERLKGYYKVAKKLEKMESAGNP
# T4: EXO-L (Egl512-770) (Drosophila melanogaster, UniProt Q9W1K4 512-770)
# T4 sequence: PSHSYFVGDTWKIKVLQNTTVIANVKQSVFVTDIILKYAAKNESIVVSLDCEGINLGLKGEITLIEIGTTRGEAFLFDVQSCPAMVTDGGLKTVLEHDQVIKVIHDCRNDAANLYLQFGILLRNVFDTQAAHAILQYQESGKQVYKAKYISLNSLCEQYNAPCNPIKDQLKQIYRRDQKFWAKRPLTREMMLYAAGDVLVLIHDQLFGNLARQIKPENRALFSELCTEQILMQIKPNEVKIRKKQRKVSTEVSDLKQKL
# T5: R788A (Drosophila melanogaster, UniProt Q9W1K4 512-819, R788A)
# T5 sequence: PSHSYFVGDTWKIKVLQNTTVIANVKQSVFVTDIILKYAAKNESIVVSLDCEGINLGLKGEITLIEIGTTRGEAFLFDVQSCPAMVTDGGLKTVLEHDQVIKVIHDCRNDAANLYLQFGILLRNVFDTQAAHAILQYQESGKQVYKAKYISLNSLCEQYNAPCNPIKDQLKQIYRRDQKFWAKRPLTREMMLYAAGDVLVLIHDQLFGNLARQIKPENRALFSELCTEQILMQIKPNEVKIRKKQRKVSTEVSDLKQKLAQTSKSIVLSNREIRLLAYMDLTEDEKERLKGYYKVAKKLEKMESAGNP
# T6: R619E (Drosophila melanogaster, UniProt Q9W1K4 512-819, R619E)
# T6 sequence: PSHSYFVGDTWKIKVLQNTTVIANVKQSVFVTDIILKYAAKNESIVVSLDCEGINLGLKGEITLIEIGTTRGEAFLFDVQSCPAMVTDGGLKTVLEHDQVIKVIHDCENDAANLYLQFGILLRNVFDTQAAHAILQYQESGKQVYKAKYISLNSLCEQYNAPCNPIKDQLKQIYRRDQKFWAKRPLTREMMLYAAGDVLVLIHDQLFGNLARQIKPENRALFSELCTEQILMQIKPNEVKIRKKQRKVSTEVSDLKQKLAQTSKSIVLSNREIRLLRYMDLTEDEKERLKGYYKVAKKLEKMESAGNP
# Key:
# Test in all cases: fluorescence anisotropy; FA: 20 mM HEPES-NaOH pH 7.5, 100 mM NaCl, 10% glycerol, 20 C, 10 nM FAM-RNA; competition: 150 nM Egl512-819 + 10 nM FAM-K10 TLS, same buffer
# Details in all cases: protein: recombinant; tags: N-terminal GST; label: 5'-6-FAM; hairpin with two bulges
# [1] = biological target: T1, R753A
# [2] = biological target: T2, R782E
# [3] = biological target: T3, R788E
# [4] = biological target: T4, EXO-L (Egl512-770)
# [5] = biological target: T5, R788A
# [6] = biological target: T6, R619E
binder,measurement,setting,value
CUUGAUUGUAUUUUUAAAUUAAUUCUUAAAAACUACAAAUUAAG (structured_RNA) [K10 TLS (FAM)],Kd,[1],95 ± 5 nM
same,Kd,[2],235 ± 30 nM
same,Kd,[3],313 ± 23 nM
same,Kd,[4],807 ± 104 nM
same,Kd,[5],207 ± 43 nM
same,Kd,[6],318 ± 15 nM
